Data from US20200157212A1 (Pfizer, published 2020).
Where a chain is given by its changes, count along the chain named.

T1: Human ROBO2 overexpressed on HEK293 cells (human, UniProt Q9HCK4 22-1378)
T1 construct: also called ROBO2 cells; native ROBO2
T1 sequence: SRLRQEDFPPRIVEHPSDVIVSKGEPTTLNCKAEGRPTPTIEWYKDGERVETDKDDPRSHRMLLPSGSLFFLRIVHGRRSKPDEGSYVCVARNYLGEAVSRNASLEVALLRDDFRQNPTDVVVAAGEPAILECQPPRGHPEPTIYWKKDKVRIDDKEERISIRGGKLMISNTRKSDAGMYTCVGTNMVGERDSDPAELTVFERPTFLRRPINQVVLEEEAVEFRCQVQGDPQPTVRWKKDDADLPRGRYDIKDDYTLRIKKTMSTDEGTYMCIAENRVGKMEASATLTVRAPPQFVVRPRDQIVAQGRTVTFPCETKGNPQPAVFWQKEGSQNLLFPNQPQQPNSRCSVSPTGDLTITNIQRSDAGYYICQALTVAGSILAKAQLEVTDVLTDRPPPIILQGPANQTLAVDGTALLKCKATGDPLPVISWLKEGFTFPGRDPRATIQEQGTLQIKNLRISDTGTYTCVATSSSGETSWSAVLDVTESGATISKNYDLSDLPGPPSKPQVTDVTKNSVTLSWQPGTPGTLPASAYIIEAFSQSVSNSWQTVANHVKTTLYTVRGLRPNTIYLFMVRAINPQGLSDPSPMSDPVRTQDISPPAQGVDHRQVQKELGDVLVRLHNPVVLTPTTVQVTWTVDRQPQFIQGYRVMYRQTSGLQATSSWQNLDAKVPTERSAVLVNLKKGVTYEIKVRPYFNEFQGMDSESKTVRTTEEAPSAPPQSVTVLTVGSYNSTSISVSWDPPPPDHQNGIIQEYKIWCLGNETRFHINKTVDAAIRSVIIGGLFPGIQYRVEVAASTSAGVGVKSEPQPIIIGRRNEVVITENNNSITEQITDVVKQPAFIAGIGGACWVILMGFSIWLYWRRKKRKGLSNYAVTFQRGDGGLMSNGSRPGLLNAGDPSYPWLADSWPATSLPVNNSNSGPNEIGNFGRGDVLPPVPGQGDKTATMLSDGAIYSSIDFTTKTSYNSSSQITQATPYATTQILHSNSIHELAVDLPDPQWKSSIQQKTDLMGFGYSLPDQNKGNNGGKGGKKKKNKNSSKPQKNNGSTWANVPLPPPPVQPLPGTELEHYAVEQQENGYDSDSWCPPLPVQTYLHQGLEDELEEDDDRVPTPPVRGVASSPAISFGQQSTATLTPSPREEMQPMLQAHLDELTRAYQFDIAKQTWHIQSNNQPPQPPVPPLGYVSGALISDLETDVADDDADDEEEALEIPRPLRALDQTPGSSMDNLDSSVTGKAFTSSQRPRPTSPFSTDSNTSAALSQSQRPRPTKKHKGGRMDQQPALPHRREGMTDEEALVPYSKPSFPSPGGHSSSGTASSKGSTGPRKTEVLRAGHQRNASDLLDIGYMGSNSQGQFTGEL

B1: 93H2 (antibody, human IgG1, kappa, V domains shown)
VH: EVQLVQSGAEVKKPGASVKVSCKASGYTFTGYYMHWVRQAPGQGLEWMGWINPNSGATNFPQKFQGRVTMTRDTSITTAYMDLSRLRSDDTAVYYCARESGDDAFDIWGQGTMVTVSS
VL: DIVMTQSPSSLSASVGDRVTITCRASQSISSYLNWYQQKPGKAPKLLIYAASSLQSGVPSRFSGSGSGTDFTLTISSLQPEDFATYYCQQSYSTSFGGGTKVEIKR
notes: also called parental 93H2; 93H2 mAb
B2: Abcs35-J (antibody, human IgG1, kappa)
heavy: EVQLVQSGAEVKKPGASVKVSCKASGYTFTGYYMHWVRQAPGQGLEWMGWINPKNGDTEFPQKFQGRVTMTRDTSITTAYMELSRLRSDDTAVYYCARESGDDAFDIWGQGTMVTVSSASTKGPSVFPLAPSSKSTSGGTAALGCLVKDYFPEPVTVSWNSGALTSGVHTFPAVLQSSGLYSLSSVVTVPSSSLGTQTYICNVNHKPSNTKVDKKVEPKSCDKTHTCPPCPAPEAAGAPSVFLFPPKPKDTLMISRTPEVTCVVVDVSHEDPEVKFNWYVDGVEVHNAKTKPREEQYNSTYRVVSVLTVLHQDWLNGKEYKCKVSNKALPAPIEKTISKAKGQPREPQVYTLPPSREEMTKNQVSLTCLVKGFYPSDIAVEWESNGQPENNYKTTPPVLDSDGSFFLYSKLTVDKSRWQQGNVFSCSVMHEALHNHYTQKSLSLSPGK
light: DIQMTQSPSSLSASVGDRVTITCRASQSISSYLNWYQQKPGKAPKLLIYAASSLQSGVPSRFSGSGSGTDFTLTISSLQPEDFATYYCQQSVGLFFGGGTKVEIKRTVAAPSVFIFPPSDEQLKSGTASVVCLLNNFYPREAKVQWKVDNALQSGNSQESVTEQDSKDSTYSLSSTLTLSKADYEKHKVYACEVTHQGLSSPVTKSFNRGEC
notes: germlined variant of Abcs35; also called ABCS-J
B3: Abcs25 (antibody, human IgG1, kappa, V domains shown)
VH: B1 VH with N54K, S55D, A57D, N59E
VL: DIVMTQSPSSLSASVGDRVTITCRASQSISSYLNWYQQKPGKAPKLLIYAASSLQSGVPSRFSGSGSGTDFTLTISSLQPEDFATYYCQQSVGLSFGGGTKVEIKR
notes: chain-shuffled IgG
B4: Abcs35 (antibody, human IgG1, kappa)
heavy: B2 heavy with E82D
light: DIVMTQSPSSLSASVGDRVTITCRASQSISSYLNWYQQKPGKAPKLLIYAASSLQSGVPSRFSGSGSGTDFTLTISSLQPEDFATYYCQQSVGLFFGGGTKVEIKRTVAAPSVFIFPPSDEQLKSGTASVVCLLNNFYPREAKVQWKVDNALQSGNSQESVTEQDSKDSTYSLSSTLTLSKADYEKHKVYACEVTHQGLSSPVTKSFNRGEC
notes: fully human IgG1; VH of Ab96 with VL of Ab123

Columns and labels:
[1] = target: T1, Human ROBO2 overexpressed on HEK293 …; test: flow cytometry, HEK293 cells overexpressing human ROBO2
Procedure: (§1) Binding of the antibodies was detected using a secondary fluorochrome conjugated anti-human IgG F(ab′)₂ antibody and samples were analyzed on a Fortessa cytometer (BD Biosciences). The fold ROBO2 selectivity was calculated as the geometric mean fluorescence intensity (Geo MFI) with ROBO2 cells/Geo MFI with ROBO1 cells. A fold change higher than 3 was considered to be ROBO2 specific (Table 2, Fold Selectivity). Some affinity matured clones had increased ROBO1 reactivity, for example Abcs 55, CTI-R2-10 and CTIR2-13.
(§2) Based upon several criteria, Abcs25 and Abcs35 were selected for further characterization. Using flow cytometry, improvement in the binding EC₅₀ to human ROBO2 relative to the parental 93H2 was evaluated. Starting at 6.7 nM, 11-point, 3-fold dilution series were made for each antibody and used to stain HEK293 overexpressing human ROBO2 as described above for the ROBO2 fold selectivity (Example 2). […] In addition to measuring improved binding to human ROBO2, it was important to ensure that high affinity binding to both cynomolgus monkey ROBO2 and rat ROBO2 was maintained. Using HEK293 cells overexpressing either cynomolgus monkey ROBO2 or rat ROBO2, the relative dose-dependent binding of 93H2, Abcs25 and Abcs35 was evaluated as described above. High affinity binding to both cynomolgus monkey and rat ROBO2 was maintained in Abcs25 and Abcs35 (Table 4). […] Briefly, Abcs35 was immobilized to 300 resonance units (RU) on a CM5 chip. Association of ROBO2 Ig1-Ig2-His (ROBO2) was measured over 5 minutes and dissociation was followed for a period of 10 minutes.

[2] = target: T1, Human ROBO2 overexpressed on HEK293 …; test: flow cytometry, HEK293 cells, average of n = 5
Procedure: as §1, §2

[3] = target: T2, Human ROBO1 RSK mutant overexpressed on HEK293 cells (human, UniProt Q9Y6N7 26-1651); test: flow cytometry, HEK293 cells
T2 construct: K137R and R139K already in the entry; also called ROBO1-RSK cells
T2 sequence (Q9Y6N7 other isoform, or with tags, fused parts or gaps mutant limits assumed): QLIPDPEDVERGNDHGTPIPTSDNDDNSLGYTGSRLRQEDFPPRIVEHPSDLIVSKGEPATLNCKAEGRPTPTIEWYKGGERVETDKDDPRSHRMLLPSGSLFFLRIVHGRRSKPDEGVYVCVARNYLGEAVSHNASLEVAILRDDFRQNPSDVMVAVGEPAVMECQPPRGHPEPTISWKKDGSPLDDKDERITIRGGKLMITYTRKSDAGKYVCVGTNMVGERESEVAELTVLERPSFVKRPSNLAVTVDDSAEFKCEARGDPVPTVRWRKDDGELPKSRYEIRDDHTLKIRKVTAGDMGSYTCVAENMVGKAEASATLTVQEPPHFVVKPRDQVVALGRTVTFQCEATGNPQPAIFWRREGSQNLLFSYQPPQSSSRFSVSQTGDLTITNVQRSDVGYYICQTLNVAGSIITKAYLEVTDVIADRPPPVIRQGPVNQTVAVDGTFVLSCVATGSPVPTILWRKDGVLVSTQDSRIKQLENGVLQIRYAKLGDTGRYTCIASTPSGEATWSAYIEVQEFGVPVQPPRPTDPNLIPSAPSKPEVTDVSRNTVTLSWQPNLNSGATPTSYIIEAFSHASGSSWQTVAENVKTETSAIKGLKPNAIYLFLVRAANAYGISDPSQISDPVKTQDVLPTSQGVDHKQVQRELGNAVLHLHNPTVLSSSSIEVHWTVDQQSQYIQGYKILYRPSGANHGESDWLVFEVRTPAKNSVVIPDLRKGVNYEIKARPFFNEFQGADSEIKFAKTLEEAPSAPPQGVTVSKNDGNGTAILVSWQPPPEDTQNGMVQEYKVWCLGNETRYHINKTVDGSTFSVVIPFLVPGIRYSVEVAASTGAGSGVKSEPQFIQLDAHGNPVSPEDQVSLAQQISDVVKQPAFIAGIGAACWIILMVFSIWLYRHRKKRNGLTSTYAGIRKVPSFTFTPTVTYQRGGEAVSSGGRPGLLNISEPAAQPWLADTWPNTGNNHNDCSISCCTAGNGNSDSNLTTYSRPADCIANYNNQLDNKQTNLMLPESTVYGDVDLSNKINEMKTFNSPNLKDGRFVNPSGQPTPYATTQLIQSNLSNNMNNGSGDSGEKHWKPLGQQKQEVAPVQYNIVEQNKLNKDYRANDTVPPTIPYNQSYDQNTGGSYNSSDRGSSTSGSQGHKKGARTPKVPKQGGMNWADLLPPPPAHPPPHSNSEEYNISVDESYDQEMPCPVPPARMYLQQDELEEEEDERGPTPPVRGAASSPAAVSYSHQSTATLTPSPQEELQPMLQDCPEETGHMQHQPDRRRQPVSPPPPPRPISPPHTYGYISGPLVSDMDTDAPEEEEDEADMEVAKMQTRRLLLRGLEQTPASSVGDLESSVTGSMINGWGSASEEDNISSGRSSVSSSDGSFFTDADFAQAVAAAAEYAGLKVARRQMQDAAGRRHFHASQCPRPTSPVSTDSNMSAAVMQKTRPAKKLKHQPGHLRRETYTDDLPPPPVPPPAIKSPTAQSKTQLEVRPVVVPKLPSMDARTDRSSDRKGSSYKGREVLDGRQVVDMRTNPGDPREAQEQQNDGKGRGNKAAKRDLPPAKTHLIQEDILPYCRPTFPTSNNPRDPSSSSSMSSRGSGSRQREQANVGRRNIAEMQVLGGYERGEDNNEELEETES
Procedure: as §2, with “Using” for “Based upon several criteria, Abcs25 and Abcs35 were selected for further characterization. Using”
The binding profile of Abcs35-J compared to Abcs35 was determined for human ROBO2, orthologs from cynomolgus monkey and rat, human ROBO1 and specificity for the RSK epitope from ROBO2 but not KSR from ROBO1. Binding was assessed by flow cytometry as described in Examples 2 (homolog specificity), Example 3 (ortholog reactivity) and Example 5 (RSK vs KSR epitope specificity). […] Binding of the antibodies was detected using a secondary fluorochrome conjugated anti-human IgG F(ab′)₂ antibody and samples analyzed on a Fortessa cytometer (BD Biosciences).

Binder | EC50 [1] [nM] | EC50 [2] [nM] | EC50 [3] [nM]
B1 | 0.133 | 0.133 | –
B2 | – | – | 0.079
B3 | 0.056 | 0.068 | –
B4 | 0.055 | 0.082 | 0.077
